Molecular target: His-hQTRT1 (catalytic subunit of human TGT);StrepII-hQTRT2 (noncatalytic subunit) (human;human, UniProt Q9BXR0;Q9H974 1-403;1-415, |)
Assay: denaturing EMSA of covalent intermediate; 9-deazaguanine; RBT buffer: 50 mM Tris-HCl pH 7.5, 20 mM NaCl, 5 mM MgCl2, 2 mM DTT, 37 C, 1-1.5 h, with 9-deazaguanine (25-50 uM); capture-release with poly(U) and ArgSL competitors, urea and guanidine washes
Settings: protein: recombinant;recombinant; tags: N-terminal His;N-terminal StrepII-SUMO; copies: 1;1; hairpin

Chain of His-hQTRT1 (catalytic subunit of human TGT);StrepII-hQTRT2 (noncatalytic subunit) (Q9BXR0 whole entry, chain 1 of 2): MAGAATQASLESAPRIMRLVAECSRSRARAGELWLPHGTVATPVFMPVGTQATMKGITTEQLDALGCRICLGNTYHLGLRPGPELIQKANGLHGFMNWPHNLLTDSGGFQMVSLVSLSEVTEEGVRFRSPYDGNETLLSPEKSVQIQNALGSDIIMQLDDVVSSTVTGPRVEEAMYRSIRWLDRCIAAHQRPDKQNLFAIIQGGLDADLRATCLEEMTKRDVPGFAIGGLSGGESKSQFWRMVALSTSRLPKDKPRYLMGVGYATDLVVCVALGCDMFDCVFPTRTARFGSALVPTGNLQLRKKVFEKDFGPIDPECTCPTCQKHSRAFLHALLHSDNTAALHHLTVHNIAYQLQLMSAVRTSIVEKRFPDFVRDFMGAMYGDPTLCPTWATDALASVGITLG
Chain of His-hQTRT1 (catalytic subunit of human TGT);StrepII-hQTRT2 (noncatalytic subunit) (Q9H974 whole entry, chain 2 of 2): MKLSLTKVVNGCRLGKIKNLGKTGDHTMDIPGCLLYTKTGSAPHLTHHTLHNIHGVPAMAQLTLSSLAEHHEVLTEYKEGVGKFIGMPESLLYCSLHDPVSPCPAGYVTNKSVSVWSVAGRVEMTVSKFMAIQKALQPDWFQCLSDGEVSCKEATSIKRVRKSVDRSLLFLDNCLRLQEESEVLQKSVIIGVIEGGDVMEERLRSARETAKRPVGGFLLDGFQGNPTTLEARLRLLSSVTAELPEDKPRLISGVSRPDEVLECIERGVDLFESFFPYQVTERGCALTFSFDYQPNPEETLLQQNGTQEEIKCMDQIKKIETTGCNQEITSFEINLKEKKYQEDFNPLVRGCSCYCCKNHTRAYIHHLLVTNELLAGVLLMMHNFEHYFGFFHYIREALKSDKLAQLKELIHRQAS

B1: Arginyl anticodon stem loop (ArgSL) (structured_RNA)
RNA: ACUGGCCUCCUAAGCCAGG
binding result: no binding

B2: Aspartyl anticodon stem loop (AspSL) (structured_RNA)
RNA: CCCCGCCUGUCACGCGGGA
binding result: binds

From paper PMC8136771, “The human tRNA-guanine transglycosylase displays promiscuous nucleobase preference but strict tRNA specificity”
